Test [1] concerns the target MUC1-ST (4). The test is described as follows: SPR; Biacore 2000; MUC1 TRD models 2-4 immobilised on a CM5 chip by maleimide coupling through a C-terminal cysteine; SN-131 Fab injected; bivalent binding model. On the technique in general: In SPR one partner is held on a chip, and binding of the other changes the refractive index at the surface.
Test [2] concerns the target MUC1 TRD-Tn (3). The test is described as above.

B1: SN-131 Fab (Fab, V domains shown)
VH: QVQLQQSGAELARPGASVKLSCKASGYTFTNYGLSWVKQRTGQGLEWIGENHPGSGIIYHNEKFRGKATLTADKSSSTAYVQLSSLTSEDSAVYFCARSSGTRGFAYWGQGTLVTVSA
VL: DVLMTQTPLSLPVSLGDQASISCRSSQSIVHSNGNTYLEWYLQKPGQSPKLLIYKVSNRFSGVPDRFSGSGSGTDFTLKISRVEAEDLGVYYCFQGSHGPWTFGGGTKLEIK
Consider B1, for which the values for the Kd in test [1] and in test [2] were 1.58 nM and 3.78 nM, respectively.

Source of the values: article PMC10398351, “Structural and molecular insight into antibody recognition of dynamic neoepitopes in membrane tethered MUC1 of pancreatic cancer cells and secreted exosomes” (RSC Chemical Biology, 2023).
